Data on three molecules can be found in patent US12068729B2, “Anti-factor XII/XIIa antibodies and uses thereof” (Regeneron Pharmaceuticals, Inc., priority 2018, dated 2024).

In general, Kd refers to the equilibrium constant for the complex coming apart. High values mean lower affinity, low ones higher affinity. As usually defined, the t½ is the time in which the quantity being followed falls by half.

In test [1] the target is T1, human FXIIa (Homo sapiens, UniProt P00748).
T1 construct: Factor XIIa, a beta-globulin plasma serine protease composed of an amino-terminal heavy chain and a carboxy-terminal light chain; purchased Enzyme Research Laboratories 1212a; host or cells: human plasma (said of the same vendor's proteins used as immunogen)
T1 sequence (P00748 20-372 limits assumed): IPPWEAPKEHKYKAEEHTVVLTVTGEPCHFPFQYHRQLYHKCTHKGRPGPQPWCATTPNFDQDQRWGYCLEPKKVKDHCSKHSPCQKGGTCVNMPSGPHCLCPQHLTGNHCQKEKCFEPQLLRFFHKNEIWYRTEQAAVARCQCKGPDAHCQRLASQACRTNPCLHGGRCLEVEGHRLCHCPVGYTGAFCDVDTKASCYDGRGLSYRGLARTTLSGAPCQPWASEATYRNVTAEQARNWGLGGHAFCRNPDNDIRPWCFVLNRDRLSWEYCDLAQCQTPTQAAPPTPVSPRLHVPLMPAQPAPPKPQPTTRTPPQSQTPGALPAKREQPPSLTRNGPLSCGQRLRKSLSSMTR
T1 sequence (P00748 373-615 limits assumed): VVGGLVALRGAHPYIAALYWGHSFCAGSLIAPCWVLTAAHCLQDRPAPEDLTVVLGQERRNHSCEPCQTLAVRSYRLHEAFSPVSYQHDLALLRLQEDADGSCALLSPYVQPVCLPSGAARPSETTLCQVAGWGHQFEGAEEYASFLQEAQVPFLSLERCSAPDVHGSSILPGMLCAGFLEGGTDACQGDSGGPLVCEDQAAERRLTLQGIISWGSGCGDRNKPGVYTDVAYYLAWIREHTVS
Briefly: Surface plasmon resonance (Biacore 4000) binding kinetics, hFXIIa. How it is done:
(§1) Equilibrium dissociation constant (KD) for different FXII reagents binding to purified anti-FXII monoclonal antibodies were determined using a real-time surface plasmon resonance based Biacore 4000 biosensor. All binding studies were performed in 10 mM HEPES, 300 mM NaCl, and 0.05% v/v Surfactant Tween-20, pH 7.4 (HBS-P) running buffer at 25° C. and 37° C. The Biacore CM5 sensor chip surface was first derivatized by amine coupling with the mouse anti-human Fc specific monoclonal antibody (GE Healthcare Cat #BR100839) to capture anti-FXII monoclonal antibodies. Binding studies were performed on human FXII and FXIIa (Enzyme Research Laboratories, Cat #1212 and 1212a, respectively). Different concentrations of hFXII and hFXIIa (50 nM-3.125 nM; 2-fold serial dilution) were first prepared in HBS-P running buffer and were injected over anti-human Fc captured anti-FXII monoclonal antibody surface for 3 minutes at a flow rate of 30 uL/minute, while the dissociation of monoclonal antibody bound FXII reagent was monitored for 5 minutes in HBS-P running buffer. The association rate (ka) and dissociation rate (kd) were determined by fitting the real-time binding sensorgrams to a 1:1 binding model with mass transport limitation using Scrubber 2.0c curve-fitting software. Binding dissociation equilibrium constant (KD) and dissociative half-life (t½) were calculated from the kinetic rates as: […]
(In SPR one partner is held on a chip, and binding of the other changes the refractive index at the surface.)

Test [2] deals with T1, human FXIIa. Described as above. This is another data set of the same source.
The test system of test [3] is thrombin generated via the Extrinsic and Common pathways. The experiment in a line: Thrombin Generation Assay (TGA) triggered by Tissue Factor. The settings on record: Extrinsic Pathway Activation with Tissue Factor; dash cells; dose up to 500 nM. The class given is biochemical, human. An excerpt:
This Example describes the inhibitory activity of selected antibodies, as determined by four functional plasma assays: 1) Activated Partial Thromboplastin Time (aPTT), 2) Prothrombin Time (PT), 3) Thrombin Generation Assay (TGA) triggered by ellagic acid and 4) TGA triggered by Tissue Factor. The aPTT test evaluates all clotting factors of the Intrinsic and Common pathways of the coagulation cascade by measuring time for a clot to form after the addition of calcium and ellagic acid, whereas the PT test evaluates all clotting factors of the Extrinsic and Common pathways of the coagulation cascade after the addition of calcium and Tissue Factor. The TGA triggered by ellagic acid measures the rate and amount of thrombin generated via the Intrinsic and Common pathways whereas TGA triggered by Tissue Factor measures the rate and amount of thrombin generated via the Extrinsic and Common pathways.
The thrombin generation profile was determined in a Thermo Scientific Hemker Thrombinoscope in the following manner: A total of 55 ul of pooled normal human plasma was added to a well of a microplate at 37° C. Then 5 ul of a 2× serially diluted test article (antibody or small molecule inhibitor) in PBS was added to the well of the microplate and allowed to incubate for 30 min. 15 ul of Tissue Factor PPP Reagent (Diagnostica Stago) was added to the well and allowed to incubate for 45 min. Then 15 ul of Fluo Flu Cal substrate (Diagnostica Stago) was added immediately before a continuous 90 min reading of the microplate. The measured real-time thrombin concentration values were plotted against time to yield a thrombogram profile for each concentration of the test article used.

A further test addresses T2, human FXII (Homo sapiens, UniProt P00748).
T2 construct: plasma purified human FXII and FXIIa proteins (Enzyme Research Laboratories); purchased Enzyme Research Laboratories 1212; host or cells: human plasma (said of the same vendor's proteins used as immunogen)
T2 sequence (P00748 20-615): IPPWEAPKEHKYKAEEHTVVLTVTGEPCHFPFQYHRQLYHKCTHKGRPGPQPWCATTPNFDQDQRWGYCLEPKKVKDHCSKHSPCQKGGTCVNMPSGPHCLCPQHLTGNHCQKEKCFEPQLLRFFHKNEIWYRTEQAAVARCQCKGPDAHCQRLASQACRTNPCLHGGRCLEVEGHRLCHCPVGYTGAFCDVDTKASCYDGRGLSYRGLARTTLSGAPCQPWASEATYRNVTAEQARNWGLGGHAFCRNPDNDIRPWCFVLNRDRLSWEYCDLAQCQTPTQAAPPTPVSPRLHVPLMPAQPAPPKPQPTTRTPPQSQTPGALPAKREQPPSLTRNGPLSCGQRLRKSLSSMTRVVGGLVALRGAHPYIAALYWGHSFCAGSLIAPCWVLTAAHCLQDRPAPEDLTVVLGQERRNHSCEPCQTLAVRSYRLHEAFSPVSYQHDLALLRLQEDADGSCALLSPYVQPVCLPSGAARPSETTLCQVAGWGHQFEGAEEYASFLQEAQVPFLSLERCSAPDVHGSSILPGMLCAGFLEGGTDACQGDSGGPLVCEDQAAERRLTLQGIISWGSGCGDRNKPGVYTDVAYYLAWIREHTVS
Briefly: Surface plasmon resonance (Biacore 4000) binding kinetics, hFXII. As for the experimental part:
as §1

B1: mAb26036: fully human anti-FXII/FXIIa monoclonal antibody, HCVR/LCVR SEQ ID NOs: 2/10 (antibody, V domains shown)
VH: QVQLVQSGAEVKKPGASVTVSCKASGYTFTSYYLHWVRQAPGQGLEWMGIINPSGGSTSYAQKFQGRVTMTRDTSTSTVYMELSSLRSEDTAVYYCARGVTTVTTYYHYYNMDVWGQGTTVTVSS
VL: DIQMTQSPSSLSASVGDRVTITCRASQGISNYLAWFQQKPGKAPKSLIYAASSLQSGVPSKFSGSGSGTDFTLTISSLQPEDFATYYCQKYNTYPLTFGGGTKVEIK
In the test with human FXIIa [1] (25° C.), B1 yielded a Kd of 3.78 nM, a ka of 42800 M⁻¹ s⁻¹, a kd of 0.000162 s⁻¹ and a t½ of 71.4 min. Further, in the test with human FXIIa [1] (37° C.), binding was characterised by a dissociation constant (Kd) of 4.74 nM, the ka amounted to 84600 M⁻¹ s⁻¹, the kd is 0.000401 s⁻¹ and the t½ is reported as 29 min. Moreover, the “100 nM Ag Bound (RU)” value in the test with human FXIIa [2] (25° C.) was determined as 89.9 RU. Moreover, the “100 nM Ag Bound (RU)” value with human FXIIa [2] (37° C.) turned out to be 166.52 RU. For the same molecule, in test [3], the “Concentration required for ↑ lag time by 2×” value (shortened to “Concentration required … by 2×”) is given as “— (no effect on thrombin generation with a dose up to 500 nM)”, the “Concentration required for ↓ endogenous thrombin potential by ½” value is “— (no effect on thrombin generation with a dose up to 500 nM)” and the “Concentration required for ↓ thrombin peak by ½” value is “— (no effect on thrombin generation with a dose up to 500 nM)”. In the test with human FXII (25° C.), the affinity, expressed as Kd, was 3.12 nM; the ka stood at 76300 M⁻¹ s⁻¹; the kd was 0.000238 s⁻¹; the t½ is 48.5 min. Besides, in the test with human FXII (37° C.), the Kd was 4.62 nM, the ka amounted to 121000 M⁻¹ s⁻¹, the kd is 0.00056 s⁻¹ and the t½ was 20.6 min.

B2: mAb26049: fully human anti-FXII/FXIIa monoclonal antibody, HCVR/LCVR SEQ ID NOs: 34/42 (antibody, V domains shown)
VH: EVQLVESGGDLVQPGGSLRLSCAASGFTFNTYAMHWVRQAPGKGLEYISAIDTKGGSTYYADSVKGRFTISRDNSKNAQYLQMDSLRVEDMAVYYCARGFGLDVWGQGTTVTVSS
VL: DVVMTQSPLSLAVTLGQPASISCRSSQSLGYSDGNTYLNWFQQRPGQSPRRLIYKVSNRDSGVPDRFSGSGSGTDFTLKINRVETVDVGVYYCMQATHWPYTFGQGTKLEIK
For B2, in the test with human FXIIa [1] (25° C.), the Kd worked out at 5.07 nM, the ka stood at 97600 M⁻¹ s⁻¹, the kd was found to be 0.000495 s⁻¹ and the t½ was found to be 23.4 min. Besides, in the test with human FXIIa [1] (37° C.), the affinity, expressed as Kd, was 6.31 nM; the ka is 244000 M⁻¹ s⁻¹; the kd turned out to be 0.00154 s⁻¹; the t½ turned out to be 7 min. Moreover, the “100 nM Ag Bound (RU)” value with human FXIIa [2] (25° C.) is listed as 162.4 RU. Also, the “100 nM Ag Bound (RU)” value with human FXIIa [2] (37° C.) came out at 251.5 RU. Besides, in test [3], the “Concentration required … by 2×” value is reported as “— (no effect on thrombin generation with a dose up to 500 nM)”, the “Concentration required for ↓ endogenous thrombin potential by ½” value was “— (no effect on thrombin generation with a dose up to 500 nM)” and the “Concentration required for ↓ thrombin peak by ½” value is “— (no effect on thrombin generation with a dose up to 500 nM)”. In the test with human FXII (25° C.), this molecule displayed a Kd of 2.74 nM, a ka of 90100 M⁻¹ s⁻¹, a kd of 0.000247 s⁻¹ and a t½ of 46.7 min. Also, in the test with human FXII (37° C.), the Kd is 8.78 nM, the ka was determined as 87000 M⁻¹ s⁻¹, the kd came to 0.000764 s⁻¹ and the t½ turned out to be 15 min.

B3: mAb26048: fully human anti-FXII/FXIIa monoclonal antibody, HCVR/LCVR SEQ ID NOs: 18/26 (antibody, V domains shown)
VH: EVQLVESGGGLVQPRGSLRLSCVASGFTFSDYGMSWVRQAPGKGLEWVSVIGGAGHGTYYADSVKGRFTISRDNSRNTLYLQMNSLRDEDTAVYYCAKKYYWNYVGGMDVWGRGTTVTVSS
VL: DIQMTQSPSSVSASVGDRVTITCRASQDINNWLAWYQQKPGKAPKLLISTASSLQSGVPSRFSGSGSGTDFTLTISSLQPEDFATYYCQQANSLPFTFGPGTKVDIK
In the test with human FXIIa [1] (25° C.), B3 displayed a Kd of 2.07 nM, a ka of 208000 M⁻¹ s⁻¹, a kd of 0.00043 s⁻¹ and a t½ of 26.8 min. In the test with human FXIIa [1] (37° C.), this molecule registered a Kd of 1.79 nM, a ka of 439000 M⁻¹ s⁻¹, a kd of 0.000784 s⁻¹ and a t½ of 15 min. Moreover, the “100 nM Ag Bound (RU)” value in the test with human FXIIa [2] (25° C.) was determined as 267.8 RU. Moreover, the “100 nM Ag Bound (RU)” value with human FXIIa [2] (37° C.) was determined as 335.6 RU. Besides, in test [3], the “Concentration required … by 2×” value is on record as “— (no effect on thrombin generation with a dose up to 500 nM)”, the “Concentration required for ↓ endogenous thrombin potential by ½” value is recorded as “— (no effect on thrombin generation with a dose up to 500 nM)” and the “Concentration required for ↓ thrombin peak by ½” value is recorded as “— (no effect on thrombin generation with a dose up to 500 nM)”. In the test with human FXII (25° C.), the Kd amounted to 0.879 nM, the ka worked out at 361000 M⁻¹ s⁻¹, the kd came out at 0.000317 s⁻¹ and the t½ is 36.5 min. Also, in the test with human FXII (37° C.), the Kd stood at 2.53 nM, the ka was determined as 276000 M⁻¹ s⁻¹, the kd amounted to 0.000698 s⁻¹ and the t½ is 17 min.
